The values below come from patent publication US20080160035A1 (Regeneron, published 2008).

The target of test [1] is T1, monomeric hIL-4R (R&D Systems) (human, UniProt P24394 26-231).
T1 construct: Bought (R&D Systems); also called hIL-4R monomer
T1 sequence: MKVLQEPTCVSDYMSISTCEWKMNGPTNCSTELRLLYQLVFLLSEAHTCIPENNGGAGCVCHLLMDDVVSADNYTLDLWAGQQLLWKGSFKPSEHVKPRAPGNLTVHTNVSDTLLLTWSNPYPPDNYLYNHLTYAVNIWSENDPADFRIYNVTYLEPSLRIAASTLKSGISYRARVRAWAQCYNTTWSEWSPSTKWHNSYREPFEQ
The experiment in a line: SPR (BIAcore 2000); antibody captured, monomeric hIL-4R injected. Background: Surface plasmon resonance follows binding to a sensor surface in real time, without labels.

Test [2] deals with T2, dimeric hIL-4R-hFc (human, UniProt P24394 26-232).
T2 construct: also called hIL-4R-Fc; not shown: human Fc (hFc)
T2 sequence: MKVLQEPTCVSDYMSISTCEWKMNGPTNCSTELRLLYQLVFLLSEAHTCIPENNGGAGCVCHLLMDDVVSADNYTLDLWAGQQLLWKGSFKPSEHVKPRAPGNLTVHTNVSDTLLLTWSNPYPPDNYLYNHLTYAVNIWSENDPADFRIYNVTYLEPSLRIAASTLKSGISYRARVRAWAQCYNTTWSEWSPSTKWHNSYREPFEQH
Nature of the test: SPR; reduction of hIL-4 (50 nM) binding to captured hIL-4R-hFc after antibody; competitor hIL-4. An excerpt: Purified hIL-4R-hFc molecules were captured by goat anti-human IgG polyclonal antibody immobilized on CM-5 to a density of 260 RU, to prepare a receptor-coated surface.

Test [3] has as its target T3, hIL-4R on cells (STAT6-transfected HEK293, TF1, TF1/A12) (human, UniProt P24394 26-825).
T3 sequence (looked up): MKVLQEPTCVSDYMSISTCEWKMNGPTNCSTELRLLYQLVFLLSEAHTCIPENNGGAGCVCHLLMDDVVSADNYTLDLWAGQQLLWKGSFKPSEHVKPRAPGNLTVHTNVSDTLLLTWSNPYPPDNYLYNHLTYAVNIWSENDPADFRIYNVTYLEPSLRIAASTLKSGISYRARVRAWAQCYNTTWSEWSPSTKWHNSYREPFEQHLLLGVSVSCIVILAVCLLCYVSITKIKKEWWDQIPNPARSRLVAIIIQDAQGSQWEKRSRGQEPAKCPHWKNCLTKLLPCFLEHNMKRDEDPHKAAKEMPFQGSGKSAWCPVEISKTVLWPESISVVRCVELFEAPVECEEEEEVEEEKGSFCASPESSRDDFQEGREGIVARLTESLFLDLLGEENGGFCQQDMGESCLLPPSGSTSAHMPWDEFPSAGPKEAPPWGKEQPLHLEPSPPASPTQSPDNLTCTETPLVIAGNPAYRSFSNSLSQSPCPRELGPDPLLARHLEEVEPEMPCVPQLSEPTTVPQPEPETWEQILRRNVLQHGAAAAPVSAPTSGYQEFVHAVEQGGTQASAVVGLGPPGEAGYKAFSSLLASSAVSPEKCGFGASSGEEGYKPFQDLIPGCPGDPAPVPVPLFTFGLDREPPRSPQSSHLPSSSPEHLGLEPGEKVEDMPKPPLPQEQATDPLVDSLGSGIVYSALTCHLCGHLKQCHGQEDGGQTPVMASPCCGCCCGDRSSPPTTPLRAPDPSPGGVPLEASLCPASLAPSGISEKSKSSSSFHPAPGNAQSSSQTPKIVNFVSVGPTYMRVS
The experiment in a line: cell-based or functional assay.

The target in test [4] is T4, mouse IL-4R (mouse, UniProt P16382 26-233, limits assumed).
T4 sequence (looked up): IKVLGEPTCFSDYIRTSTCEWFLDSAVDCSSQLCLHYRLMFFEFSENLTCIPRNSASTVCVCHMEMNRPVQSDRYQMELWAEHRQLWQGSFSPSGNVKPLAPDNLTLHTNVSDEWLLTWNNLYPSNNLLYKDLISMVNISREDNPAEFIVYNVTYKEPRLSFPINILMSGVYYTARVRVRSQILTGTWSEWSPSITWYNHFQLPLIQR
Nature of the test: binding affinity test of Example 2 (method not restated).

For test [5], the target named is T3, hIL-4R on cells (STAT6-transfected …). Nature of the test: cell-based or functional assay. The source holds these as a separate data set.
The target in test [6] is T2, dimeric hIL-4R-hFc. Nature of the test: ELISA; antibody titrated against 25 pM hIL-4R-Fc, free receptor caught on hIL-4 plate.
Test [7] addresses T2, dimeric hIL-4R-hFc. The experiment in a line: SPR (BIAcore 2000); antibody captured, dimeric hIL-4R-hFc injected.
For test [8], the target named is T5, hIL-4R (human, UniProt P24394 26-232).
T5 construct: also called human IL-4 receptor; antigen
T5 sequence (looked up): T2 sequence
The experiment in a line: screen of hybridoma conditioned media.

Residue numbers refer to the chain shown, from its start.

B1: VAK10G12-5 (antibody, V domains shown)
VH: QVQLVESGGGVVQPGGSLRLSCAASGFTFSSYGMHWVRQAPGRGLEWVAVLSYDGSKEFYADSVKVRFTVSRDNSKNTLYLQMSSLRVEDTAIYFCAKEGRTGNWFDPWGQGTLVAVSS
VL: DIQMTQSPSSLSASVGDRVTITCRASQAINNFLAWFQQKPGKTPKSLIFATSSLQSGVPSRFSGSESGTDFTLTISSLQPEDFATYYCQQYNSHPWTFGQGTKVEIK
notes: Apparently tested with mouse constant region (anti-mouse IgG capture/detection)
On to B1, for which, in test [1], the Kd (in general, the constant that tells how readily two partners part at equilibrium) worked out at 0.09 nM and the T1/2 monomeric was 6 h. Moreover, the “% Inhibition (BIAcore)” value in test [2] stood at 94%. Besides, in test [3], the “STAT6 Bioassay IC50 (HEK293 STAT6 luciferase, 40 pM hIL-13)” value came to 0.26 nM and the “TF1 Bioassay IC50 (proliferation, 150 pM hIL-13)” value was determined as 1.9 nM. Further, the binding result in test [4] is reported as “no binding”. In test [5], the “STAT6 Bioassay IC50 (HEK293 STAT6 luciferase, 10 pM hIL-4)” value worked out at 0.36 nM and the “TF1 Bioassay IC50 (proliferation, 50 pM hIL-4)” value is 0.58 nM. The half-inhibitory concentration (IC50) (in general, the concentration that inhibits the measured activity by half) in test [6] came to 0.059 nM. In test [7], the Kd worked out at 0.007 nM and the T1/2 dimeric was 46 h.

B2: VAB 7B9-3 (antibody, V domains shown)
VH: QVQLVQSGAEVKKPGASVKVSCKDSAYTFNRYGISWVRQAPGQGLEWMGWISAYTGNTVYAQKLQGRVTMTTDNSTSTAYMELRSLRSDDTAVYYCARDKSIFGVVRGFDYWGQGTLVTVSS
VL: EIVMTQSPVTLSLSPGERATLPCRASQSVSSSLAWYQQKAGQSPRLLIYGASTRATGIPARFSGSGSGTEFTLTISNLQSEDFAVYYCQQYNNWPLTFGGGTKVEIK
notes: as for B1
In test [1], B2 showed a Kd of 1.01 nM and a T1/2 monomeric of 0.217 h. Also, in test [2], the “% Inhibition (BIAcore)” value is 96%. In test [3], the “STAT6 Bioassay IC50 (HEK293 STAT6 luciferase, 40 pM hIL-13)” value was determined as 1.1 nM. Moreover, the binding result in test [4] is reported as “no binding”. In test [5], the “STAT6 Bioassay IC50 (HEK293 STAT6 luciferase, 10 pM hIL-4)” value turned out to be 3.4 nM and the “TF1/A12 Bioassay IC50 (proliferation, 20 pM hIL-4)” value turned out to be 8.2 nM. This molecule had an IC50 in test [6] of 0.059 nM. In test [7], this molecule gave a dissociation constant (Kd) of 0.052 nM and a T1/2 dimeric of 6.1 h.

B3: VAB 13A1-6 (antibody, V domains shown)
VH: EVQLVESGGGLVQPGRSLRLSCAASGFTFDNYAMHWVRQAPGKGLEWVSGIRWNSGSIGYADSVKGRFTISRDNAKNSLYLQMNSLRAEDTALYYCAKEGGYSGYRPGPFFDYWGQGTLVTVSS
VL: B2 VL with V9A, L13V, P22S, S30N, S31Y, S32N, Q38H, A40P, S43A, N77S
In the case of B3, the binding result in test [8] is “binds”.
